Reference: article PMC5352466 (Bioconjugate chemistry, 2017)

Assay: Pharmacokinetics study in mice after tail vein injection
Assay type: in vivo
Conditions: fasted CD1 mice, i.v. tail vein, 16 Qg/kg of insulin, 3-60 min, ELISA, n = 5

## insulin
  plasma concentration of insulin after injection: not detectable at any time point
